T1: rat G-protein Gαq in rat hippocampal membranes (rat, UniProt P82471 1-359)
T1 construct: also called Gq
T1 sequence (looked up): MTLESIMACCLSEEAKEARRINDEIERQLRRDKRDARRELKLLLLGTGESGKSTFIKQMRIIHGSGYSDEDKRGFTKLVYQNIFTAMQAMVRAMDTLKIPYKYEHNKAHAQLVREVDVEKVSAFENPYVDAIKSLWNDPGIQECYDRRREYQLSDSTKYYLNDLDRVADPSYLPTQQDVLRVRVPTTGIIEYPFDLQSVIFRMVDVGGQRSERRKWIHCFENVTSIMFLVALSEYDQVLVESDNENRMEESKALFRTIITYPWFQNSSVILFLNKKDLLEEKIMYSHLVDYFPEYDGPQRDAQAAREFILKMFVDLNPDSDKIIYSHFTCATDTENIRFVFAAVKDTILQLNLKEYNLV


Legend:
[1] = target: tail-less PS-1 (amino acids 1-430 of PS-1) (human, UniProt P49768 1-430); assay: co-immunoprecipitation with MAb to the PS-1 loop, Western blot with anti-Go
Excerpt: Verification of the binding of G-protein Gₒ to the cytoplasmic carboxyl terminus of PS-1. A tail-less construct of PS-1 was made in pcDNA3 in which only the cytoplasmic domain of PS-1 immediately following the last TM-domain is deleted (this construct comprises amino acids 1-430). This construct was used to transfect ES (PS-1^{-/-}/PS-2^{-/-}) cells. […] In an identical strategy to the one described above for full-length PS-1, ES (PS-1^{-/-}/PS-2^{-/-}) cells were transfected with cDNAs for tail-less PS-1 and the G-proteins GoA or GoB. Cells extracts were then subjected to immunoprecipitation with PS-1 loop MAb #5232), separated on SDS PAGE and Western blotted with antibodies to Gₒ.
100 μg of extract of ES (PS-1^{-/-}/PS-2^{-/-}) cells co-transfected with cDNAs for tail-less PS-1 and the G-protein GαoA or GαoB were immunoprecipitated with MAb to the large hydrophilic loop of PS-1, followed by Western blot hybridization with affinity purified polyclonal antibody to Gₒ (recognizes both isoforms, GoA and GoB).

[2] = target: T1, rat G-protein Gαq in rat hippocampal …; assay: stimulation of ^35S-GTPγS binding by the peptide in rat hippocampal membranes

| Binder | binding result [1] | binding result [2] |
| --- | --- | --- |
| human G-protein GαoB (other, Co-transfected with PS constructs in ES double-null cells; assayed in detergent extracts; also called GoB; GOB) GCTLSAEERAALERSKAIEKNLKEDGISAAKDVKLLLLGAGESGKSTIVKQMKIIHEDGFSGEDVKQYKPVVYSNTIQSLAAIVRAMDTLGIEYGDKERKADAKMVCDVVSRMEDTEPFSAELLSAMMRLWGDSGIQECFNRSREYQLNDSAKYYLDSLDRIGAADYQPTEQDILRTRVKTTGIVETHFTFKNLHFRLFDVGGQRSERKKWIHCFEDVTAIIFCVALSGYDQVLHEDETTNRMHESLKLFDSICNNKWFTDTSIILFLNKKDIFEEKIKKSPLTICFPEYTGPSAFTEAVAYIQAQYESKNKSAHKEIYTHVTCATDTNNIQFVFDAVTDVIIAKNLRGCGLY | no binding | – |
| TDYLVQPFMDQLAFHQFYI (Synthetic peptide; also called residues 21-39 of the C-tail) [PS-1 cytoplasmic peptide C(21-39), last 19 amino acids of the C-tail] | – | binds |
| KYLPE (Synthetic peptide; also called loop 3; Cytoplasmic Loop 3 peptide) [PS-1 cytoplasmic peptide ic3 (KYLPE)] | – | binds |
